How the values were obtained:
[1] = target: anthrax lethal factor (LF) (Bacillus anthracis, UniProt P15917 34-809); experiment: […]) immobilized in 20 mM HEPES pH 7.4, […]
Target sequence in this assay (P15917 34-809): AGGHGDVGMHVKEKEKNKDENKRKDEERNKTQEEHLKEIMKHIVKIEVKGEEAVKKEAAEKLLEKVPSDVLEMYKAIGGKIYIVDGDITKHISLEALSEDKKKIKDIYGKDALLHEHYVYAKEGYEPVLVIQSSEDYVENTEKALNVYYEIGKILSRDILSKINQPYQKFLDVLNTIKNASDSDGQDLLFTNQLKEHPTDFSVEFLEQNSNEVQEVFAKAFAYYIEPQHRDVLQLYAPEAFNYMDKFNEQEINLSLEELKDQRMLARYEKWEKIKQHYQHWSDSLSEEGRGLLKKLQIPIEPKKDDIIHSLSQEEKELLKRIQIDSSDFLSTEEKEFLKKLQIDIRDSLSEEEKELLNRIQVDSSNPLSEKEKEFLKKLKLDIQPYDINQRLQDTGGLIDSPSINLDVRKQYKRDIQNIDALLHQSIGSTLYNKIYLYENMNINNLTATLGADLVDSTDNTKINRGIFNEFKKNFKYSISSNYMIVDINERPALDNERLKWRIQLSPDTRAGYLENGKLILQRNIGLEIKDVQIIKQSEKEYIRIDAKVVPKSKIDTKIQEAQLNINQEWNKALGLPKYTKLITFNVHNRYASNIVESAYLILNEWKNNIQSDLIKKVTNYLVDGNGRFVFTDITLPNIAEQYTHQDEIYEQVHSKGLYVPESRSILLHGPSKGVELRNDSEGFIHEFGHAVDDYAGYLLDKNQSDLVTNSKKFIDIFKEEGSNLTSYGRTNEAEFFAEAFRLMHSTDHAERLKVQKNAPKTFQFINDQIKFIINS

[2] = target: anthrax lethal factor (LF) (Bacillus anthracis, UniProt P15917 34-809); experiment: aptamer ELISA
Target sequence in this assay (P15917 34-809): as above

Binder	binding result [1]	binding result [2]
GGACCAGCCGCCGCGCCTTGACCGGGGGTA (ssDNA) [ML6]	no binding	
GGAGAGAGGGAGACGCGCAACCTCGACCCGT (ssDNA) [ML7]	no binding	
CGCACTGAAGTGGGATACCGCCTAAACGGA (ssDNA) [scramble 30-mer]		no binding
